Data published in the supplement of paper PMC7125110.
± gives the standard error. For some assays here: Fewer inactive variants are shown than the library holds.

B1: glmS ribozyme (parent)
chain: AUAAAAGCGCCAGAACUACAGAAAUGUAGUUGACGAGGAGGAGGUUUAUCGAAUUUUCGGCGGAUGCCUCCAAA

Key:
Conditions in all cases: with glucosamine-6-phosphate
glucosamine-6-phosphate [1] = variants of: B1; experiment: self-cleavage kobs at 40 uM GlcN6P; higher = faster cleavage; RNA array
How it was run: (§1)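 Over ~14 h at 37 °C, tiles were imaged as glucosamine-6-phosphate (40 μM to 10 mM) in HEPES/KCl/Mg(OAc)2 buffer flowed across sequenced MiSeq chips. The chips carried barcoded ribozyme variants transcribed in situ by E. coli RNA polymerase and tracked with a hybridised Cy3 probe. After normalisation to baseline and to non-cleaving reference variants, one- or two-exponential decay fits of per-tile medians gave kobs. kcat and KM followed from weighted Michaelis–Menten fits across concentrations.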

glucosamine-6-phosphate [2] = variants of: B1; experiment: kcat; higher = faster cleavage; RNA array
How it was run: as §1

glucosamine-6-phosphate [3] = variants of: B1; experiment: self-cleavage kobs at 160 uM GlcN6P; higher = faster cleavage; RNA array
How it was run: as §1

glucosamine-6-phosphate [4] = variants of: B1; experiment: self-cleavage kobs at 640 uM GlcN6P; higher = faster cleavage; RNA array
How it was run: as §1

glucosamine-6-phosphate [5] = variants of: B1; experiment: self-cleavage kobs at 2500 uM GlcN6P; higher = faster cleavage; RNA array
How it was run: as §1

glucosamine-6-phosphate [6] = variants of: B1; experiment: self-cleavage kobs at 10000 uM GlcN6P; higher = faster cleavage; RNA array
How it was run: as §1

glucosamine-6-phosphate [7] = variants of: B1; experiment: KM; higher = weaker cofactor use; RNA array
How it was run: as §1

Variant | self-cleavage kobs at 40 uM GlcN6P (glucosamine-6-phosphate [1]) | kcat (glucosamine-6-phosphate [2]) | self-cleavage kobs at 160 uM GlcN6P (glucosamine-6-phosphate [3]) | self-cleavage kobs at 640 uM GlcN6P (glucosamine-6-phosphate [4]) | self-cleavage kobs at 2500 uM GlcN6P (glucosamine-6-phosphate [5]) | self-cleavage kobs at 10000 uM GlcN6P (glucosamine-6-phosphate [6]) | KM (glucosamine-6-phosphate [7])
A6C A14C A39G C50A | < 1e-05 s⁻¹ |  |  |  |  |  | 
C61G G62U C68G |  | 1.21e-05 ± 3.9e-06 s⁻¹ |  |  |  |  | 
A6C A48C | < 1e-05 s⁻¹ |  | < 1e-05 s⁻¹ | < 1e-05 s⁻¹ | < 1e-05 s⁻¹ | < 1e-05 s⁻¹ | 
A64U C71G |  | 1.96e-05 ± 1.5e-06 s⁻¹ |  |  |  |  | 
U65A U69A |  | 7.76e-05 ± 5.6e-06 s⁻¹ | 4.06e-05 ± 1.5e-05 s⁻¹ | 6.97e-05 ± 1.3e-05 s⁻¹ | 7.08e-05 ± 1.2e-05 s⁻¹ |  | 134 ± 50 µM
U69A C71U |  | 7.42e-05 ± 1.9e-05 s⁻¹ | 3.69e-05 ± 1.3e-05 s⁻¹ | 9.28e-05 ± 1.6e-05 s⁻¹ | 8.39e-05 ± 1.6e-05 s⁻¹ | 4.27e-05 ± 1.7e-05 s⁻¹ | 
U65G U69C |  | 0.00467 ± 0.0019 s⁻¹ | 0.000177 ± 4.5e-05 s⁻¹ | 0.000431 ± 8.3e-05 s⁻¹ | 0.00108 ± 0.00019 s⁻¹ | 0.00297 ± 0.0005 s⁻¹ | 
A42U G59A |  |  |  |  |  |  | 145 ± 23 µM
G66C C67A |  | 0.000183 ± 3e-05 s⁻¹ |  | 3.04e-05 ± 1.2e-05 s⁻¹ | 0.000107 ± 1.6e-05 s⁻¹ | 0.000137 ± 2.5e-05 s⁻¹ | 2370 ± 860 µM
G66U C71G |  | 8.21e-05 ± 2.6e-06 s⁻¹ |  |  | 4.34e-05 ± 1.2e-05 s⁻¹ | 6.65e-05 ± 1.1e-05 s⁻¹ | 2320 ± 240 µM
G63C C71G | < 1e-05 s⁻¹ | < 1e-05 s⁻¹ | < 1e-05 s⁻¹ | < 1e-05 s⁻¹ |  | < 1e-05 s⁻¹ | 222 ± 79 µM
G66A C67A C71U | 6.11e-05 ± 1.7e-05 s⁻¹ | 0.00289 ± 0.0012 s⁻¹ |  | 0.000304 ± 6.2e-05 s⁻¹ | 0.00101 ± 0.00048 s⁻¹ | 0.002 ± 0.00029 s⁻¹ | 
A6C A12G U56C | < 1e-05 s⁻¹ |  |  |  |  | < 1e-05 s⁻¹ | 
C61U A64G | < 1e-05 s⁻¹ | 2.3e-05 ± 9.4e-07 s⁻¹ | < 1e-05 s⁻¹ |  |  |  | 1200 ± 250 µM
C67A U69C | 0.000527 ± 0.00011 s⁻¹ | 0.00359 ± 0.0017 s⁻¹ |  | 0.0019 ± 0.00079 s⁻¹ |  | 0.00665 ± 0.0025 s⁻¹ | 
C61U G66A |  | < 1e-05 s⁻¹ |  | < 1e-05 s⁻¹ |  |  | 
U65C C68A | < 1e-05 s⁻¹ | < 1e-05 s⁻¹ |  |  |  |  | 
U65A C68U | 3.81e-05 ± 8.7e-06 s⁻¹ | 0.000403 ± 0.00012 s⁻¹ | 0.000111 ± 1.8e-05 s⁻¹ | 0.000186 ± 2.8e-05 s⁻¹ | 0.000287 ± 4.2e-05 s⁻¹ | 0.000655 ± 8.7e-05 s⁻¹ | 
G40U C58G |  |  |  |  |  |  | 4730 ± 1300 µM
U69G C70U |  | 4.03e-05 ± 6.8e-06 s⁻¹ | 4.73e-05 ± 1.4e-05 s⁻¹ | 4.66e-05 ± 9.6e-06 s⁻¹ | 5.03e-05 ± 8.5e-06 s⁻¹ | 2.88e-05 ± 6.8e-06 s⁻¹ | 

Variant | self-cleavage kobs at 40 uM GlcN6P (glucosamine-6-phosphate [1]) | kcat (glucosamine-6-phosphate [2]) | self-cleavage kobs at 160 uM GlcN6P (glucosamine-6-phosphate [3]) | self-cleavage kobs at 640 uM GlcN6P (glucosamine-6-phosphate [4]) | self-cleavage kobs at 2500 uM GlcN6P (glucosamine-6-phosphate [5]) | self-cleavage kobs at 10000 uM GlcN6P (glucosamine-6-phosphate [6]) | KM (glucosamine-6-phosphate [7])
G63A C71G | < 1e-05 s⁻¹ | 2.96e-05 ± 9.4e-06 s⁻¹ |  |  |  |  | 
U2C G7C A42G U56A C61A | < 1e-05 s⁻¹ |  |  |  |  | < 1e-05 s⁻¹ | 
A6C A14C U31G A48G G51U C58U C61A | 8.19e-05 ± 3.4e-05 s⁻¹ |  |  |  |  |  | 
C58A G66U |  | 5.19e-05 ± 5.8e-06 s⁻¹ |  |  |  | 4.3e-05 ± 5.6e-06 s⁻¹ | 
C61G U69A |  | 2.83e-05 ± 3.9e-06 s⁻¹ |  |  |  |  | 
C61A A64U C71G |  | 1.67e-05 ± 3.2e-06 s⁻¹ |  |  |  |  | 
G66C U69C |  | 0.000157 ± 7.2e-05 s⁻¹ |  | 7.5e-05 ± 2.8e-05 s⁻¹ | 6.79e-05 ± 1.5e-05 s⁻¹ | 0.000137 ± 2.8e-05 s⁻¹ | 
C58A C71G | < 1e-05 s⁻¹ | 3.85e-05 ± 8.3e-06 s⁻¹ |  | 3.58e-05 ± 1.5e-05 s⁻¹ | 4.63e-05 ± 1.1e-05 s⁻¹ | 2.57e-05 ± 1.2e-05 s⁻¹ | 
C58G A64G |  | 0.000129 ± 2.7e-05 s⁻¹ |  | 6.72e-05 ± 2.7e-05 s⁻¹ | 6.74e-05 ± 1.2e-05 s⁻¹ | 0.000115 ± 1.7e-05 s⁻¹ | 
G66A | 0.00059 ± 1.2e-05 s⁻¹ | 0.0375 ± 0.011 s⁻¹ | 0.0016 ± 6.7e-05 s⁻¹ | 0.00697 ± 0.0004 s⁻¹ | 0.016 ± 0.00099 s⁻¹ | 0.0316 ± 0.0015 s⁻¹ | 2780 ± 890 µM
G66U | 5.79e-05 ± 1.2e-06 s⁻¹ | 0.00275 ± 0.00056 s⁻¹ | 0.000159 ± 5.1e-06 s⁻¹ | 0.00057 ± 1.2e-05 s⁻¹ | 0.00179 ± 6.8e-05 s⁻¹ | 0.00225 ± 6.3e-05 s⁻¹ | 2210 ± 580 µM
G66C | 2.55e-05 ± 1.8e-06 s⁻¹ | 0.000832 ± 7.4e-05 s⁻¹ | 8.08e-05 ± 2.4e-06 s⁻¹ | 0.000244 ± 6.2e-06 s⁻¹ | 0.000709 ± 3.8e-05 s⁻¹ | 0.000712 ± 1.8e-05 s⁻¹ | 1470 ± 210 µM
A64C U69G | < 1e-05 s⁻¹ | 1.56e-05 ± 5e-06 s⁻¹ |  |  |  |  | 
A6C A42G | < 1e-05 s⁻¹ |  | < 1e-05 s⁻¹ |  | 6.82e-05 ± 1.8e-05 s⁻¹ | 9.6e-05 ± 1.1e-05 s⁻¹ | 
C61A C67U C71U |  | 5.2e-05 ± 2.5e-05 s⁻¹ |  | 8.57e-05 ± 2.8e-05 s⁻¹ |  |  | 
G59C C67G |  | < 1e-05 s⁻¹ |  |  |  |  | 
U65C C70G |  | 1.37e-05 ± 3.9e-06 s⁻¹ |  |  |  |  | 
A14G U31C | 0.0012 ± 0.00019 s⁻¹ |  | 0.00337 ± 0.00062 s⁻¹ | 0.00963 ± 0.0011 s⁻¹ | 0.0154 ± 0.0043 s⁻¹ | 0.05 ± 0.013 s⁻¹ | 891 ± 450 µM
C67U C71A |  | 0.000182 ± 3.8e-05 s⁻¹ | 6.95e-05 ± 1.8e-05 s⁻¹ | 6.34e-05 ± 9e-06 s⁻¹ | 0.000131 ± 1.6e-05 s⁻¹ | 0.000168 ± 2.2e-05 s⁻¹ | 
